Our source for the response values is publication PMC7235047.

In the test the target is γH2AX, P16104. The experiment in a line: proximity ligation assay (PLA). To be noted: chain shown with the change, U2OS cells transfected with GFP-RNF168 wildtype and mutants, antibodies against GFP and γH2AX, 75 (wildtype), parent: est. 43, read off a plot.

B1: GFP-RNF168 wildtype, Q8IYW5 R57D; E143del; E144del (protein)
chain: MALPKDAIPSLSECQCGICMEILVEPVTLPCNHTLCKPCFQSTVEKASLCCPFCRRDVSSWTRYHTRRNSLVNVELWTIIQKHYPRECKLRASGQESEEVADDYQPVRLLSKPGELRREYEEEISKVAAERRASEEEENKASYIQRLLAEEEEEEKRQAEKRRRAMEEQLKSDEELARKLSIDINNFCEGSISASPLNSRKSDPVTPKSEKKSKNKQRNTGDIQKYLTPKSQFGSASHSEAVQEVRKDSVSKDIDSSDRKSPTGQDTEIEDMPTLSPQISLGVGEQGADSSIESPMPWLCACGAEWYHEGNVKTRPSNHGKELCVLSHERPKTRVPYSKETAVMPCGRTESGCAPTSGVTQTNGNNTGETENEESCLLISKEISKRKNQESSFEAVKDPCFSAKRRKVSPESSPDQEETEINFTQKLIDLEHLLFERHKQEEQDRLLALQLQKEVDKEQMVPNRQKGSPDEYHLRATSSPPDKVLNGQRKNPKDGNFKRQTHTKHPTPERGSRDKNRQVSLKMQLKQSVNRRKMPNSTRDHCKVSKSAHSLQPSISQKSVFQMFQRCTK
For B1, the response (n = 53 cells (R57D/Δ143-144)) amounted to 11.

B2: GFP-RNF168 wildtype, Q8IYW5 E143del; E144del (protein)
chain: MALPKDAIPSLSECQCGICMEILVEPVTLPCNHTLCKPCFQSTVEKASLCCPFCRRRVSSWTRYHTRRNSLVNVELWTIIQKHYPRECKLRASGQESEEVADDYQPVRLLSKPGELRREYEEEISKVAAERRASEEEENKASYIQRLLAEEEEEEKRQAEKRRRAMEEQLKSDEELARKLSIDINNFCEGSISASPLNSRKSDPVTPKSEKKSKNKQRNTGDIQKYLTPKSQFGSASHSEAVQEVRKDSVSKDIDSSDRKSPTGQDTEIEDMPTLSPQISLGVGEQGADSSIESPMPWLCACGAEWYHEGNVKTRPSNHGKELCVLSHERPKTRVPYSKETAVMPCGRTESGCAPTSGVTQTNGNNTGETENEESCLLISKEISKRKNQESSFEAVKDPCFSAKRRKVSPESSPDQEETEINFTQKLIDLEHLLFERHKQEEQDRLLALQLQKEVDKEQMVPNRQKGSPDEYHLRATSSPPDKVLNGQRKNPKDGNFKRQTHTKHPTPERGSRDKNRQVSLKMQLKQSVNRRKMPNSTRDHCKVSKSAHSLQPSISQKSVFQMFQRCTK
For B2, where the note is “n = 74 cells (Δ143-144)”, the response amounted to 34.
